Test results from paper doi:10.1101/2021.12.07.471543.

Target: C4BPα1-2, a fragment of human C4b-binding protein (C4BP) (human)
Assay: ITC

Substance | Kd [µM]
Intact M2 protein (mature form), Streptococcus pyogenes strain AP2 (natural protein) | 4
M2G (M2_(53)G), M2 aa 53-86 fused at its C-terminus to a GCN4 coiled-coil sequence | 4
